Measured values reported in patent publication US20170212117A1 (RANDOX LABORATORIES, published 2017).

T1: Recombinant human mature SLPI (Secretory leukocyte protease inhibitor)
T1 chain: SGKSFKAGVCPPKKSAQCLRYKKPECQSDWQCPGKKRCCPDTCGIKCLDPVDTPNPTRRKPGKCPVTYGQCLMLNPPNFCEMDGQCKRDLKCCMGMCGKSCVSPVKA

B1: C5.5 monoclonal antibody (supernatant of hybridoma clone C5.5) (antibody, V domains shown)
VH: EVQLVESGGGLVHPQGSLKLSCTASGFTFNTYDMNWVRQAPGKGLEWVARIRTKSYYYATYYADSVKDRFTISRDDSQTMLYLQLNNLKTEDTALYYCVRRSGNYGAMDYWGQGTSVTVSS
VL: QIVLTQSPAIMSASLGERVTMTCTASSSVSSSYLHWYQQKPGSSPKLWIYSTSNLASGVPARFSGSGSGTSYSLTISSMEAEDAATYYCHQYHRSPRTFGGGTKLEIK
notes: Used as cell-free hybridoma supernatant coated on the plate (capture antibody); also called C5.5 supernatant
B2: Human neutrophil elastase (human sputum derived NE, Elastin Products SE563) (protein)
chain: IVGGRRARPHAWPFMVSLQLRGGHFCGATLIAPNFVMSAAHCVANVNVRAVRVVLGAHNLSRREPTRQVFAVQRIFENGYDPVNLLNDIVILQLNGSATINANVQVAQLPAQGRRLGNGVQCLAMGWGLLGRNRGIASVLQELNVTVVTSLCRRSNVCTLVRGRQAGVCFGDSGSPLVCNGLIHGIASFVRGGCASGLYPDAFAPVAQFVNWIDSIIQ

Experiments:
[1] = biological target: T2, Recombinant human mature SLPI (Secretory leukocyte protease inhibitor) (human, UniProt P03973 26-132); experiment: sandwich ELISA, hybridoma supernatant as capture, biotinylated anti-SLPI PAb BAF1274 as detector
T2 construct: Bought from R&D Systems (product number 1274-PI-100); also called full length SLPI; full-length SLPI
Protocol: FIG. 4. Detection of C-SLPI in CF sputum samples. CF sputum samples were assayed via ELISA for the presence of C-SLPI using the supernatant from hybridoma clone C5.5 as a capture antibody. Standard curve generated by assaying known concentration of C-SLPI produced by incubation of recombinant SLPI with NE (A). C-SLPI concentrations in 63 sputum samples derived from CF patients as identified via ELISA using C5.5 as a capture antibody (B).
A Maxisorp plate (Nunc) was coated for 16 h at 4° C. with 100 μl/well hybridoma supernatant diluted 1:50 in Voller's reagent. Cell free hybridoma supernatants were acquired directly from individual cultures by centrifugation at 1,400 rpm for 5 min. The plate was blocked with 200 μl 1% BSA in PBST 0.05% (v/v) Tween 20 for 1 h at room temperature. Either a half concentration dilution series of 200 ng/ml to 3.125 ng/ml of both C-SLPI and SLPI (100 μl/well) in 1% BSA in PBST 0.05% (v/v) Tween 20 or CF sputum samples diluted 1:50 v/v in 1% BSA in PBST 0.05% (v/v) Tween 20 were added to the plate and incubated for 2 h at room temperature. Control wells received NE alone. […] The absorbance at 405 nm of wells was measured on a microtiter plate reader (Genios using Magellan software) and results were analyzed using GraphPad Prism version 6 (GraphPad Software).

[2] = biological target: T1, Recombinant human mature SLPI …

Binder	binding result [1]	SLPI cleavage by NE (Western blot) [2]
B1	no binding (tested: 200 ng/ml to 3.125 ng/ml)	–
B2	–	Successful cleavage of SLPI was observed at molar ratios of 1:4, 1:8 and 1:10 SLPI to NE
